Each block holds one binder with its values, some of them ahead of it. Non-standard residues stand in square brackets, D forms with d. pS = N[C@@H](COP(=O)(O)O)C(=O)O
Assays:
[1] = target: T1, KIX domain from mouse CBP, residues 586-672 (mouse, UniProt P45481 586-672); assay: differential scanning fluorimetry (DSF); 20 uM protein with 5X SYPRO orange, incubated with 1X TAD peptide at RT for 30 minutes; 25-95°C at 1°C/min; Tm is the maximum of the first derivative, dTm the difference between protein and protein + ligand; details: both partners purified
T1 construct: the pRSETB vector may add further residues beside the His tag (surmise); also called apo KIX; Apo KIX(586-672); source: E. coli BL21 DE3, purified (HisTrap Ni IMAC, Source S ion exchange)

[2] = target: T2, KIX_(I660V) (KIX domain from mouse CBP, residues 586-672, I660V) (mouse, UniProt P45481 586-672, I660V); assay: as above; details: both partners purified
T2 construct: also called mutant KIX_(I660V); K_(I660V); source: E. coli BL21 DE3, purified (HisTrap Ni IMAC, Source S ion exchange)
T2 sequence (P45481 586-672 I660V): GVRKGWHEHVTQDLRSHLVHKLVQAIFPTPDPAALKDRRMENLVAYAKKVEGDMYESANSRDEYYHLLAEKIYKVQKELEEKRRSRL

T1 sequence (P45481 586-672): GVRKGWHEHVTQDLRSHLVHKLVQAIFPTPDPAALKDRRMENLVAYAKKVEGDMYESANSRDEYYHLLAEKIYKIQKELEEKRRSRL

binding result [1]: binds | binding result [2]: binds
B1: pKID(119-147) peptide, phosphorylated kinase-inducible domain of CREB (peptide)
peptide: Ac-TDSQKRREILSRRP[pS]YRKILNDLSSDAPG-NH2
SMILES: CC[C@H](C)[C@H](NC(=O)[C@H](CCCCN)NC(=O)[C@H](CCCNC(=N)N)NC(=O)[C@H](Cc1ccc(O)cc1)NC(=O)[C@H](COP(=O)(O)O)NC(=O)[C@@H]1CCCN1C(=O)[C@H](CCCNC(=N)N)NC(=O)[C@H](CCCNC(=N)N)NC(=O)[C@H](CO)NC(=O)[C@H](CC(C)C)NC(=O)[C@@H](NC(=O)[C@H](CCC(=O)O)NC(=O)[C@H](CCCNC(=N)N)NC(=O)[C@H](CCCNC(=N)N)NC(=O)[C@H](CCCCN)NC(=O)[C@H](CCC(N)=O)NC(=O)[C@H](CO)NC(=O)[C@H](CC(=O)O)NC(=O)[C@@H](NC(C)=O)[C@@H](C)O)[C@@H](C)CC)C(=O)N[C@@H](CC(C)C)C(=O)N[C@@H](CC(N)=O)C(=O)N[C@@H](CC(=O)O)C(=O)N[C@@H](CC(C)C)C(=O)N[C@@H](CO)C(=O)N[C@@H](CO)C(=O)N[C@@H](CC(=O)O)C(=O)N[C@@H](C)C(=O)N1CCC[C@H]1C(=O)NCC(N)=O
notes: kinase-inducible domain of CREB, residues 119-147, phosphorylated; source: synthetic peptide (HPLC purified, >90% purity)

B2: MLL(840-858) peptide (peptide)
peptide: Ac-DCGNILPSDIMDFVLKNTPY-NH2
notes: mixed lineage leukemia (MLL) transcription factor peptide, printed residues 840-858; last printed letter of the peptide, beyond the 19 residues of the stated range; source: synthetic peptide (HPLC purified, reduced with DTT, 98% purity)
increase in TM [1]: 0.8 °C

— paper PMC9067669, “Allostery in the dynamic coactivator domain KIX occurs through minor conformational micro-states” (PLoS Computational Biology, 2022)
